{"source": "patent US20190352664A1", "about": "“COMPOSITIONS AND METHODS FOR CONTROLLING GENE EXPRESSION” (priority 2017, published 2019)"}
{"tested_on": "dual luciferase reporter", "experiment": "Dual luciferase assay (LUC/RLUC), transient expression", "type": "in vivo, N. benthamiana", "settings": "5′ leader sequence reporters"}
{"molecule": "BET10: R-motif-dependent gene; 5′ leader sequence tested in dual luciferase reporter (nucleic acid, listed as Arabidopsis thaliana) DNA: TTAGGGACGGGACACTAGAGAAGGGAGGGCAGAGAGCGATTTTGTTCTCTCTCTACTTCTCGGTCGTCTTCTTCGTCTCCACTCTAGGGTTTTACTCTATCTTCTTCTTCATCATCATCTTCTACACCAATCTCTAGCGTTAATCTGTTTCTGCTGGAGAAGATTTACGCTTGTTCCTCGGTTCTCTTACTTCTGCTCCGGTTCGATCGCTTGCTAAGTGTTTCGAGTTGGTTCGCACTTCGGTGGGCGATATC", "TE when PAB2 was co-expressed": "lower TE"}
{"molecule": "ZIK3: R-motif-dependent gene; 5′ leader sequence tested in dual luciferase reporter (nucleic acid, listed as Arabidopsis thaliana, listed as DNA, chemistry not fully specified) DNA: ACTTGTTTCCTTATATATTCTTCTCCCTTTAAACATTTAATCTTTTCCTCTTCTACCATCTCCACAAATTCCAAACATCTCTCTCTCTTTCTCTCTCACACACAAAATTGCAGAAGAAGAAGAGTC", "TE when PAB2 was co-expressed": "lower TE"}
{"tested_on": "Arabidopsis", "experiment": "Ribo-seq and RNA-seq global translatome profiling (translational efficiency TE, mORF/uORF ribo-shift) upon elf18 treatment", "type": "in vivo", "set-up": "key to score (Ribo-shift): Up: ribo-shift up (i.e., increased mORF/uORF ratio); Down: ribo-shift down (i.e., decreased mORF/uORF ratio)", "settings": "shift of mORF/uORF ratio, elf18 vs Mock; per uORF"}
{"molecule": "AT5G49980.1_1: uORF of AT5G49980.1; peptide SEQ ID NO: 36 (nucleic acid, listed as DNA, chemistry not fully specified) DNA: ATGGAGACGAAGTGGAGAGAGAAAGCTCCCACTCTCTCACACCCCAAAGCTTCTTCTTCTTCTTCCTCTTCTTCCTCTTCCTCTTCTCTAATCTGA", "score (Ribo-shift)": "Down"}
{"molecule": "AT5G61010.1_3: uORF of AT5G61010.1; peptide SEQ ID NO: 38 (nucleic acid, listed as DNA, chemistry not fully specified) DNA: ATGTCAACTGGATTAAGCTTAAGTAGTAATGGTTTTTACTATGTTCATGTGGGGATTTCTCTTCCTCTCTGTTTACTTCATTCCGAGATGACTTGA", "score (Ribo-shift)": "Down"}
{"molecule": "AT5G15950.1_1: uORF of AT5G15950.1; peptide SEQ ID NO: 35 (nucleic acid) DNA: ATGATGGAATCGAAAGCTGGTAATAAGAAGTCAAGCAGCAATAGTTCCTTATGTTACGAAGCACCCCTTGGTTACAGCATTGAAGACGTTCGTCCTTTCGGTGGAATCAAGAAATTCAAATCTTCTGTCTACTCCAACTGCGCTAAGAGGCCTTCCTGA", "score (Ribo-shift)": "Down"}
{"tested_on": "Arabidopsis", "experiment": "Ribo-seq and RNA-seq global translatome profiling (translational efficiency TE, mORF/uORF ribo-shift) upon elf18 treatment", "type": "in vivo", "set-up": "key to score (Ribo-shift): Up: ribo-shift up (i.e., increased mORF/uORF ratio); Down: ribo-shift down (i.e., decreased mORF/uORF ratio)", "settings": "translational efficiency fold change, elf18 vs Mock; listed as shows 5′ UTR of the transcript"}
{"molecule": "AT1G12580.1: 5′ UTR of transcript; phosphoenolpyruvate carboxylase-related kinase 1 (nucleic acid) DNA: GAGAGAGGACTGGGTCTGGTCTCTTCGCTGCAACCTATAGCTGTTGTTTGCTCTTCGACGGGATTCTCACTACTCTTTTGCCAAAAAAAAGAGATCGGAGGTTCCGAAGGTGAATGCAGCTTGCGATTTCATAGAAAAGAAGATTCGTTTGCTGGATTAGGCTTATTTGTGTATCATAGCTTTGAGGTTTTAACTGAGATTTATTGATAGTGGAACTTAGGTTTTCGAGAGGTGTGAACAGTTGGGTAT", "score (TE change)": "TEup (448 had increased TEfc)"}
{"molecule": "AT5G57460.1: 5′ UTR of transcript (nucleic acid) DNA: GAAGATCTCATTTCTCTTTCTCCTTTTCTTCTCCGACGATTCTTCTCAGTTCTCAGATCTGATCGATTTCTTCATCAGATGTTTCAATCTAACCATTGAGATTGAATAGTCACCATTAGTAGAAGCTTCGAGATCAATTTCGAATCGGGATC", "score (TE change)": "TEup (448 had increased TEfc)"}
{"molecule": "AT5G49980.1: 5′ UTR of transcript; auxin F-box protein 5 (nucleic acid) DNA: AAAAAATAATCCCCAAATAATGGAGACGAAGTGGAGAGAGAAAGCTCCCACTCTCTCACACCCCAAAGCTTCTTCTTCTTCTTCCTCTTCTTCCTCTTCCTCTTCTCTAATCTGAATCCAAAGCCTCTCTCTTT", "score (TE change)": "TEdown (389 genes displayed decreased TEfc (|z|≥1.5))"}
{"molecule": "AT5G14930.1: 5′ UTR of transcript; senescence-associated gene 101 (nucleic acid, listed as DNA, chemistry not fully specified) DNA: TATGGACTCTCGTTCTCAGACATTTATTTCTCTCAGTCTTACAATATAAATTTTCATTCTTACCATCCATAATTTTGTATTGTCTTCTCCACAGATCTATTCCAGCTCACGCC", "score (TE change)": "TEdown (389 genes displayed decreased TEfc (|z|≥1.5))"}
{"molecule": "AT5G15950.1: 5′ UTR of transcript; Adenosylmethionine decarboxylase family protein (nucleic acid) DNA: ACAATATCACAAACTCGTTTGCTCTTTTCATCATTACTAAATCATAAGCGGCTCTCAAGTTCTTTAGGGTTTCGAGTTTTCTCAATCTCCTACCTGATTAAGGTTAATTTCTTATCTTGGATCAATAACAAGAGAATTATAACTCCGGATTGTAATCAATATTCCTCTACATAAAAAGCGTGAATGAGATTATGATGGAATCGAAAGCTGGTAATAAGAAGTCAAGCAGCAATAGTTCCTTATGTTACGAAGCACCCCTTGGTTACAGCATTGAAGACGTTCGTCCTTTCGGTGGAATCAAGAAATTCAAATCTTCTGTCTACTCCAACTGCGCTAAGAGGCCTTCCTGAGTACTAGCCAGTTCCCTCCATAGCTTTTCAATTACAACAATCTCCTTTTCTCAAAGCTCTGGTTCCCCAAATCCTCTCGTCTTTTGTTTGCCCTCACAACAACAACAACAACGCAGAG", "score (TE change)": "TEdown (389 genes displayed decreased TEfc (|z|≥1.5))"}
{"molecule": "AT5G61010.1: 5′ UTR of transcript; exocyst subunit exo70 family protein E2 (nucleic acid) DNA: TCTTTCCCTTCTTCTTCCCCAATAATCTCGCTGAAACTCTCTTGCTCTTGCTTCTAAAAATCTGTTCTTTGAGACTTTGATCACACAGTTATCAAAATCATAATCTCTTCTTTCCTGGTTTTTTTTTTTTTCTTCTTCTTCTTCCCGTTTCACGGTACGTTTACTCTGTTCGATCACCGAGTGTATGATAAAATGTTTCTGTGAAATCAAATAACATATCACTTTCTAATAAACATCAAAATTTCTCCTTTTTTACAGAAACAAGAAGTTTTTTTGGGAAAGCCGTTGACTTGACTTTTTCTTTGGGGTGTTGTGTGGGAGCTTATAGTATGGTACCATAAGTGGGAGCTTATAGTTTGGGGTGTTGTGTGGGAGCTTATAGTATGAGGAAAAATGTTAGATTTGAAGAATGCTTCACTGATTTTTTACCATAAGTATGTCAACTGGATTAAGCTTAAGTAGTAATGGTTTTTACTATGTTCATGTGGGGATTTCTCTTCCTCTCTGTTTACTTCATTCCGAGATGACTTGAGATTTTTTCAAAGTATAGTTCTTGGAGTTAAGCTTACCTAGTAATCACTTTATATAACATCCCTTCGTTTACATTTGTGCTTTCACCTGGAAACACTTTAGACTTTTCTCTCTTCTGCCGTGTGTATTTAGTTGTCTAGTCAAATTTAAGTTGAGTTTAGGCTCTAGTCTTTGGTTTTGGTT", "score (TE change)": "TEdown (389 genes displayed decreased TEfc (|z|≥1.5))"}
{"molecule": "AT1G59700.1: 5′ UTR of transcript; glutathione S-transferase TAU16 (nucleic acid) DNA: ATTGTGTGGTGACAAGCAACACATGATATGTCCGTTTAGAAACAGACAAAATAAGAAGAAGAAGAAAGAGTCGTGGAGGATTCTTCATTCTTCCTCATCCTCTTCTTCACCGATTCATTAGAAACCAAATTACAAAAAAAAACGTCTATACACAAAAAAACAA", "score (TE change)": "TEdown (389 genes displayed decreased TEfc (|z|≥1.5))"}
{"molecule": "AT4G38950.1: 5′ UTR of transcript; ATP binding microtubule motor family protein (nucleic acid) DNA: AAGAACAAACAACTACCAAACTTGTAGGCAGTAGCAGGAGGAAGTGGGTGGGATTAACATTGTCATTTCTCTCTCTTTTTCTTTTACAAATCTTTCCGTTTTGTTTTCTTTTGGTTTTCCGGTGAGCACTGTTGTGTTTCCAATTCCGGCACTCTTTAGGGTTCCCTTTCAGAAGAAAACTTCACATTGTTGTTTCTCTCAACCGTGACATCTTGGATTACTACTTCTGACTACTTTCCTTTTTCATGTGCCCCAAAAGATAATAGTTACTTTTTCAAAATCTGGTTTTGTTGTTTGGGTTTGTGTCATTCATTGATAAAGTCACTAATGGAGAAGTACAAAACAATTGCAAAATTTCGAATCTGTGTTGTCATTGCTGAATTCTGTAGTGGATGTTTGCTTGCAGTTTAGAGCTTCGGAGTGCGAAGAGTGAGACACAAGAGGATTCTTTCTGGAACCGCATTATTCCCTTTAGAGGAGGAAGAAGAAGACAACTCACTCACAAGGAAAACAAAGGTTCCTCTGGTTACTCTGAAATATTCAAACCAATGGTGAGCAATTGGTAGCACTTGCTAAAGAAG", "score (TE change)": "TEdown (389 genes displayed decreased TEfc (|z|≥1.5))"}
{"molecule": "AT1G30330.1: 5′ UTR of transcript; auxin response factor 6 (nucleic acid) DNA: CTTCTTCTTCTGATTCTCATTTCAAATAAGAGAGAGAGAGAGAGAAGTAAGTAAAACTTTAGCAGAGAGAAGAATAAACAAATAATTATAGCACCGTCACGTCGCCGCCGTATTTCGTTACCGGAAAAAAAAAATCATTCTTCAACATAAAAATAAAAACAGTCTCTTTCTTTCTATCTTTGTCTATCTTTGATTATTCTCTGTGTACCCATGTTCTGCAACAGTTGAGCAAGTGCATGCCCCATATCTCTCTGTTTCTCATTTCCCGATCTTTGCATTAATCATATACTTCGCCTGAGATCTCGATTAAGCCAGCTTATAGAAGAAGAAACGGCACCAGCTTCTGTCGTTTTAGTTAGCTCGAGATCTGTGTTTCTTTTTTTCTTGGCTTCTGAGCTTTTGGCGGTGGTGGGTTTTTCTGGAGAAACCCAAACGACTATCAAAGTTTTGTTTTTTACAATTTTAAGTGGGAGTTATGAGTGGGGTGGATTAAGTAAGTTACAAGTATGAAGGAGTTGAAGATTCGAAGAAGCGGTTTTGAAGTCGGCGAGACCAAGATTGCGAGCTTATTTGGCTGATGATTTATTTCAGGGAAGAAGAAATAAATCTGTTTTTTTTAGGGTTTTTAGATTTGGTTGGTGAATGGGTGGGAGGTGGAGGGAAACAGTTAAAAAAGTTATGCTTTTAGTGTCTCTTCTTCATAATTACATTTGGGCATCTTGAAATCTTTGGATCTTTGAAGAAACAAAGTTGTGTTTTTTTTTTTGTTCTTTGTTGTTTGCTTTTTAAGTTAGAATAAAAA", "score (TE change)": "TEdown (389 genes displayed decreased TEfc (|z|≥1.5))"}
{"molecule": "AT5G11790.1: 5′ UTR of transcript; N-MYC downregulated-like 2 (nucleic acid) DNA: AAACACAAAAAAACGAAGATAGCCATCGTTTTGGTGAGAGAAGAGAGAAGAGAGAAGAAGAAGGCCATGGAAAGATAATACTCTGCTTTTTTTTTAGAAATATACAGAGGAAATAAAGAGAGAGAGAAGGAG", "score (TE change)": "TEdown (389 genes displayed decreased TEfc (|z|≥1.5))"}
